± gives the uncertainty stated by the source.

Amyloid nucleation score data for 140 substances are collected here from the supplement of paper PMC12042874.

The data set can be described thus: amyloid nucleation score (Sup35N fusion, yeast selection) (log enrichment); library NNK1; higher = more nucleation; inactive = no reads after selection. An outline of the steps: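 Growth for 7 days at 30°C on medium lacking adenine and uracil followed a 24-hour induction with 100 μM copper sulfate of psi-negative yeast expressing peptides of 20 random codons fused to Sup35N. Input and output plasmid inserts were sequenced with Illumina, and sequences with under 100 input reads were excluded. Nucleation score is the DiMSum log enrichment of output over input reads, centred on the mode score of non-aggregating sequences.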
In turn, LQAKMTIGAFFISYSSMYPG yielded an amyloid nucleation score of 2.74 ± 0.08.
For LQEVSWYSTVALTLSNLKWG the value was -0.389 ± 0.46; for LQFGWFMIYLIKFSPNLRGN, -1.18 ± 1.7.
The result for LQSYWRYRVKRFV reads -0.39 ± 0.39.
As to LQVKNVYGACFVCAMMVAWE, the amyloid nucleation score worked out at 5.18 ± 0.09.
For the substance LRAIRE, the amyloid nucleation score was 0.33 ± 0.63.
For LRCLYIG the value was -0.818 ± 0.86; for LRCYEDLFVGLAHGRMRYTG, -0.561 ± 1.7; for LRDISEH, -0.588 ± 0.53.
Substance LREFLPLSNTVVGFTLDSYV came in with an amyloid nucleation score of -0.526 ± 0.9.
LRFRFSLANAEGLMLPVRHK: the amyloid nucleation score is -0.216 ± 0.48.
Turning to LRFVTINRRSVSVYSSNTKS, the amyloid nucleation score entry was “inactive”.
The result for LRGFESTRETVLGSMQQWCL reads 1.03 ± 0.56.
In the case of LRGVLMFMQVRDRADRGRSW, the amyloid nucleation score was determined as 0.061 ± 0.47.
For LRGVPLYFDGRHMWYAFSRY the value was -0.424 ± 0.47.
For LRIPFTSWRYDNEMAVTGSG the value was 0.394 ± 0.84; for LRKDGSGK, 1.06 ± 0.21.
Consider LRKSWVQSKHCDIRPDSKAL, for which the amyloid nucleation score amounted to 0.693 ± 0.68.
Regarding LRRIKCYTFMIAGSILVVGT, the amyloid nucleation score result was “inactive”.
In turn, LRTDALFY yielded an amyloid nucleation score of 0.577 ± 0.69.
The result for LRVAFIKLKHKKFNDMYRSM reads 0.156 ± 0.26; that for LRVTSFMIMQLDLECPRCQI, -0.007 ± 0.46; that for LRWLSRKILLTVRASN, -0.125 ± 0.33.
LRYVKSHSTMAFKLGATPGT displayed an amyloid nucleation score of 0.505 ± 0.66.
LSCIVW showed an amyloid nucleation score of -0.366 ± 0.57.
For LSGFLSYYLCKPKA the value was -0.887 ± 0.38.
With LSGGPSGLINAFLYPSPNKW, the amyloid nucleation score was found to be 0.07 ± 0.81.
For LSGTTLIPEYILRSSNPSI the value was 0.147 ± 1.6.
For LSGWHSNLAGRPFPNEMDDG the value was 0.284 ± 0.3; for LSIFMTITAVESPWVTETVF, -0.803 ± 0.4.
The substance LSIFVF registered an amyloid nucleation score of 1.75 ± 0.25.
For LSLSYPYFTFAHSVEMRESI the value was 9.039 ± 0.053; for LSMWSRHSMTPRFFLGLTPV, 0.766 ± 0.69; for LSNSSEVPHNSVNINDFVWD, “inactive”.
For LSPHLPSESLGLGPMS the value was -0.921 ± 1.4; for LSPRSSA, -0.322 ± 0.65; for LSQIWIKSPGFAKDFTPILC, 0.045 ± 0.36.
For LSTNDTSR the value was -0.028 ± 0.53; for LSTVRLFILEPLYGGPPRNG, -1.4 ± 1.4; for LSTYAGCRNAWPELQ, -0.52 ± 0.4.
LSVRDVLYGHVRWVGWGGVK had an amyloid nucleation score of 0.886 ± 0.64.
For LSVVSWICRFDALQGHSCVK the value was -0.561 ± 0.41; for LSWFMGLSYIKILYYCHIYD, -0.142 ± 1.1.
Take LSWVVVVSNKYGQTMTCVVI: the amyloid nucleation score was -0.326 ± 0.5.
For LSYLGLLP the value was 0.373 ± 0.62; for LTISRSYRPKWFSVSTGLDS, 0.437 ± 1.4; for LTNFNAWR, 0.098 ± 0.47.
The result for LTPNVFAL reads -0.345 ± 0.3; that for LTRSRGVSRLYIVRGVTDVW, 0.076 ± 0.43.
On to LTSQSLVVNFLLYCTG, for which the amyloid nucleation score was 1.1 ± 0.85.
For LTSWLDYDDISEWHRSDGFR the value was 0.987 ± 0.57; for LTTQIVIFFCWVCKDINCCK, 4.88 ± 0.081; for LTWLL, 0.992 ± 0.97.
The result for LVAATP reads 0.898 ± 0.66.
As for LVCRYFRNRWMPSTRWGVHS, the amyloid nucleation score stood at 0.711 ± 0.85.
For LVCVGTGSGMFEHRAIMMLV the value was -0.174 ± 0.51.
The result for LVDWVYGWGVVVFAMSQGSE reads 0.125 ± 1.4; that for LVFGILHGCFEVVSGMLRVD, -0.801 ± 0.65.
For LVFVSFIW the value was 0.942 ± 0.17; for LVGRRGYFSLVWVPGMSFMR, 0.289 ± 0.45.
On to LVHKLFDIRRCPTAFSNWTM, for which the amyloid nucleation score was determined as 1.29 ± 0.47.
In the case of LVHPSWN, the amyloid nucleation score is -0.311 ± 0.77.
For LVIPVDRDANGLCYR the value was 0.46 ± 0.6.
The result for LVLCSFYYDKAWSPESCLME reads -0.258 ± 0.62; that for LVLSSPRHDMSCSYAHFNMN, 1.38 ± 0.43.
For LVLVWVAIHFDRLRIHRFFI the value was “inactive”; for LVMSTRLQTCCWLNVNVGWV, 6.04 ± 0.069; for LVNVCFRWNLKCYYQSSEYA, 0.518 ± 0.32.
With LVNWYTQILICTCPGHKLRR, the amyloid nucleation score worked out at 8.156 ± 0.053.
The result for LVPVIKEQFCCHVWVMV reads “inactive”; that for LVQMLTVDCATEKLHLAILS, 0.567 ± 0.64; that for LVRRRSKSRVRVPFLRLSMR, -0.415 ± 0.72.
The substance LVRYLCVPSFGKAGYDGEGE displayed an amyloid nucleation score of -0.86 ± 0.79.
The result for LVSGRRGRRESSNHMVGLLE reads 0.968 ± 0.51.
With LVSRRSGHKYYGTTTDCCKN, the amyloid nucleation score entry was “inactive”.
For LVVLL the value was -0.108 ± 0.71; for LVVVGGKLNLTTWNAR, 0.829 ± 1; for LVWISVL, 0.163 ± 0.32.
For LWCCMTLTIASNDFLNIRCM the value was 1.31 ± 0.15; for LWDLKIAGRLNLEGCRCGLW, 2.1 ± 0.13; for LWDVRPWRWVWEWENVNYGK, 0.382 ± 0.54.
For LWFAHNS, the amyloid nucleation score came to 0.462 ± 0.59.
For LWFLNRRLVKQSYG the value was 0.606 ± 0.38; for LWLIPRWYDLTEMECFDMYN, 0.477 ± 0.45.
For the substance LWNIIVSIKGRIVESLAPTY, the amyloid nucleation score is -0.113 ± 0.51.
Regarding LWNIMVLDIWDRDLCSCIWG, the amyloid nucleation score turned out to be 0.756 ± 0.56.
For LWYTFMSLHLGTVLEVRK the value was “inactive”; for LYAHYRADVHEEKSLYYVIA, 0.101 ± 0.23.
For LYAVLDILVMFMLMSPP the value was 0.253 ± 0.36.
The result for LYCFIMDFLLGFKHCMCKGV reads 1.55 ± 0.44; that for LYDLNIKWWRGASLVECECL, 0.139 ± 0.41; that for LYGSVKNIKRLPHCFMLCLC, 0.616 ± 0.36.
For the substance LYHWYLRR, the amyloid nucleation score result was “inactive”.
Regarding LYIQSSNYRDMVYPYSVVPL, the amyloid nucleation score came out at 1.95 ± 0.28.
LYLEARGGRVSYHQLFFGER: the amyloid nucleation score turned out to be 2.45 ± 0.18.
The result for LYLIGTILNLIGY reads 5.746 ± 0.045; that for LYNVSSLGSANKSFLGRSS, 1.39 ± 0.76.
For LYPLMEGDRKKL the value was 0.981 ± 0.47; for LYPNRAGGRLAGLGGMPYE, 0.085 ± 0.44.
Regarding LYRFWCYALST, the amyloid nucleation score entry was “inactive”.
The result for LYSIVVKYCYQYLSRACNYN reads 0.637 ± 0.36; that for LYTCCSTYVCSNLGRNVK, 7.074 ± 0.06; that for LYTVTTKR, -0.119 ± 0.31.
As for LYVDYQCIGSFVTIYKYITP, the amyloid nucleation score is 0.889 ± 0.27.
LYVFSEKIFCRNGFSSYISL came in with an amyloid nucleation score of 0.855 ± 0.74.
The result for LYVVSSVFLGEPVRKQVYQI reads -0.678 ± 0.96; that for LYYNASTAIELNLEYSIKWL, 0.17 ± 0.8.
Substance MAFMHLIISYCRYIF yielded an amyloid nucleation score of 0.341 ± 0.74.
For the substance MAPEFCIEDKIRVVPFLIPI, the amyloid nucleation score stood at 0.197 ± 0.89.
MASTMPC registered an amyloid nucleation score of -0.654 ± 1.
On to MAWDLT, for which the amyloid nucleation score is 1.52 ± 0.22.
The result for MCFDGICMNWWVR reads 2.96 ± 0.086; that for MCLSPVNNVLLYFRFNKRAE, 3.38 ± 0.12.
Substance MCMQKVL registered an amyloid nucleation score of -0.263 ± 1.4.
MCSLFVCMSNTSIV came in with an amyloid nucleation score of 5.406 ± 0.051.
For MDLNEQTEYLLLASRFPMYY the value was “inactive”.
The result for MDNGTESPLE reads 1.15 ± 0.72; that for MDRFRHNLILICLFLPLILV, -0.364 ± 0.75.
On to MDSDRVRPDESSVGLN, for which the amyloid nucleation score was 0.915 ± 0.56.
For MEAWRHSTSACSDGA the value was -0.245 ± 0.39.
The substance MESLIRFSPASKIVISPFTV displayed an amyloid nucleation score of 0.748 ± 1.2.
With MEWLYRNTATFCR, the amyloid nucleation score is -0.657 ± 1.7.
Substance MFFLYCLARRVGKLMECRV yielded an amyloid nucleation score of 1.28 ± 0.46.
The result for MFFVSI reads 0.41 ± 0.22.
Regarding MFGIFM, the amyloid nucleation score was 3.58 ± 0.099.
For MFKNRGG the value was 0.057 ± 0.36.
For MFLIGFDGTYERSSLF the value was -0.106 ± 1.7.
Substance MFRALVCITVPILHKATNM showed an amyloid nucleation score of -0.689 ± 0.81.
Take MFSQLGVYISCFLSSSVDVE: the amyloid nucleation score was 0.317 ± 0.48.
The result for MFVDFTDVRMVYLSLCVYML reads 1.25 ± 0.093; that for MGHTGYFQCKVATWCEGE, 0.792 ± 0.92.
The result for MGLMIMIFWWEDM reads -0.82 ± 0.91.
In the case of MGSEVSELWGLVEVKVGDKP, the amyloid nucleation score was 0.617 ± 0.52.
On to MHCLGLAWALELVSLLC, for which the amyloid nucleation score is -0.374 ± 0.77.
For MHISCNTDSSYTFGRNALK the value was 0.341 ± 0.74; for MHLVQSCYLVIPRVLDPELV, 0.313 ± 1; for MHRGDVMRSSWNHDGVGTVR, 0.048 ± 1.2.
The result for MHVQRVFTRCFKFSPQFVRH reads -1.11 ± 0.36; that for MHYWGTGKHQINTWNMILFI, 3.95 ± 0.11; that for MICYLF, 0.019 ± 0.26.
